Consider three molecules from PMC6134095 (2018).

For assay [1], the target named is T1, FtsQ (58–276), periplasmic domain of E. coli FtsQ (Escherichia coli strain K-12, UniProt P06136 58-276). Kind of assay: SPR.
Assay [2] deals with T1, FtsQ (58–276), periplasmic domain of E. …. Nature of the assay: SPR; major phase. (Surface plasmon resonance follows binding to a sensor surface in real time, without labels.)
The target is the same in assay [3]. Kind of assay: SPR; minor phase.
Assay [4] shares this target. Nature of the assay: SPR; minor phase. This is another data set of the same source.

T1 sequence (P06136 58-276): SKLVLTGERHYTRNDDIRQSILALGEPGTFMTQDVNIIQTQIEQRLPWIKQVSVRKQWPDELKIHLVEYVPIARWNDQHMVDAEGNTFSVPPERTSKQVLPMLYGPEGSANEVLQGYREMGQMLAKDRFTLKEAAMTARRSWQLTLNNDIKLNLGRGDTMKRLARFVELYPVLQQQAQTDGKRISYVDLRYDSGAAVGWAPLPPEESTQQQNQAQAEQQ

B1: FtsN (57–319), periplasmic domain of E. coli FtsN (domain or fragment)
chain: HKKEESETLQSQKVTGNGLPPKPEERWRYIKELESRQPGVRAPTEPSAGGEVKTPEQLTPEQRQLLEQMQADMRQQPTQLVEVPWNEQTPEQRQQTLQRQRQAQQLAEQQRLAQQSRTTEQSWQQQTRTSQAAPVQAQPRQSKPASSQQPYQDLLQTPAHTTAQSKPQQAAPVARAADAPKPTAEKKDERRWMVQCGSFRGAEQAETVRAQLAFEGFDSKITTNNGWNRVVIGPVKGKENADSTLNRLKMAGHTNCIRLAAGG
One may read the koff as the first-order rate constant of dissociation. A low value points to a long-lived complex. Regarding B1, the koff in assay [1] worked out at 0.076 s⁻¹.

B2: FtsB (22–103), periplasmic domain of E. coli FtsB (domain or fragment)
chain: GKNGIHDYTRVNDDVAAQQATNAKLKARNDQLFAEIDDLNGGQEALEERARNELSMTRPGETFYRLVPDASKRAQSAGQNNR
Broadly, the Kd is the equilibrium constant for the complex coming apart. Read a low Kd as a tighter complex. As to B2, the koff in assay [2] worked out at 0.00021 s⁻¹; in assay [3], 0.031 s⁻¹. The Kd in assay [4] came out at 11 µM.

B3: FtsN (58–320) plus FtsB (22–103), bound together (other)
chain 1: GKNGIHDYTRVNDDVAAQQATNAKLKARNDQLFAEIDDLNGGQEALEERARNELSMTRPGETFYRLVPDASKRAQSAGQNNR
chain 2: HKKEESETLQSQKVTGNGLPPKPEERWRYIKELESRQPGVRAPTEPSAGGEVKTPEQLTPEQRQLLEQMQADMRQQPTQLVEVPWNEQTPEQRQQTLQRQRQAQQLAEQQRLAQQSRTTEQSWQQQTRTSQAAPVQAQPRQSKPASSQQPYQDLLQTPAHTTAQSKPQQAAPVARAADAPKPTAEKKDERRWMVQCGSFRGAEQAETVRAQLAFEGFDSKITTNNGWNRVVIGPVKGKENADSTLNRLKMAGHTNCIRLAAGG
As for B3, the figures for the off-rate constant (koff) in assay [2] and in assay [3] were 8.3e-05 s⁻¹ and 0.03 s⁻¹, respectively. This molecule also showed a Kd in assay [4] of 5.6 µM.
